Assay results as given in patent US20210380664A1 (AICURIS ANTI INFECTIVE CURES, published 2021).

Molecular target: HCMV virus particles, strain TB40/E
Assay: cell-based or functional assay

B1: PDGFR-alpha derived 40mer peptide GT40 (peptide)
peptide: GRHIYIYVPDPDVAFVPLGMTDYLVIVEDDDSAIIPCRTT
- EC50 of inhibition of infection of HFFs by peptide: 2000 nM
